Data from the supplement of paper PMC10567573.

B1: C9orf9 (parent)
chain: TKHKCRQLTKASLKPRGCSKPPWR
B2: TMEM192 (parent)
chain: ILGKVILWILHLLLECYIQYHHSK

Variants of: B1
Test: protein stability index of a GFP-peptide fusion (GPS, HEK-293T) (PSI 1-6); higher = more stable
Conditions: c terminus: a fixed tail appended
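Note: lentivirally expressed fusions sorted by FACS into six bins by GFP to DsRed ratio, PSI derived from sequencing read proportions per bin multiplied by bin number.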

Question: For TKHKCRQLTKASLKPRGCSKPPWL, which protein stability index is on record?
Answer: 1.72

Question: With TKHKCRQLTKASLKPRGCSKPPWD as the variant, how does the protein stability index read?
Answer: 3.17

Question: Which protein stability index does the source give for TKHKCRQLTKASLKPRGCSKPPWC here?
Answer: 1.99

Question: Which protein stability index does the source give for TKHKCRQLTKASLKPRGCSKPPWK here?
Answer: 3.63

Question: For TKHKCRQLTKASLKPRGCSKPPWM, which protein stability index is on record?
Answer: 2.57

Question: With TKHKCRQLTKASLKPRGCSKPPWA as the variant, how does the protein stability index read?
Answer: 2.95

Question: Which protein stability index does the source give for TKHKCRQLTKASLKPRGCSKPPWP here?
Answer: 2.53

Question: With TKHKCRQLTKASLKPRGCSKPPWV as the variant, how does the protein stability index read?
Answer: 2.14

Question: With TKHKCRQLTKASLKPRGCSKPPWW as the variant, how does the protein stability index read?
Answer: 2.51

Question: Which protein stability index does the source give for TKHKCRQLTKASLKPRGCSKPPWY here?
Answer: 2.59

Question: With TKHKCRQLTKASLKPRGCSKPPWH as the variant, how does the protein stability index read?
Answer: 2.82

Question: For TKHKCRQLTKASLKPRGCSKPPWQ, which protein stability index is on record?
Answer: 2.2

Question: With TKHKCRQLTKASLKPRGCSKPPWG as the variant, how does the protein stability index read?
Answer: 2.12

Question: Which protein stability index does the source give for TKHKCRQLTKASLKPRGCSKPPWS here?
Answer: 2.18

Question: Which protein stability index does the source give for TKHKCRQLTKASLKPRGCSKPPWE here?
Answer: 3.22

Question: Which protein stability index does the source give for TKHKCRQLTKASLKPRGCSKPPWT here?
Answer: 2.73

Question: With TKHKCRQLTKASLKPRGCSKPPWN as the variant, how does the protein stability index read?
Answer: 2.79

Question: For TKHKCRQLTKASLKPRGCSKPPWI, which protein stability index is on record?
Answer: 1.43

Question: Which protein stability index does the source give for TKHKCRQLTKASLKPRGCSKPPWF here?
Answer: 2.14

Question: For TKHKCRQLTKASLKPRGCSKPPQR, which protein stability index is on record?
Answer: 3.46

Question: With TKHKCRQLTKASLKPRGCSKPPPR as the variant, how does the protein stability index read?
Answer: 4.18

Question: For TKHKCRQLTKASLKPRGCSKPPTR, which protein stability index is on record?
Answer: 3.93

Question: Which protein stability index does the source give for TKHKCRQLTKASLKPRGCSKPPNR here?
Answer: 4.32

Question: For TKHKCRQLTKASLKPRGCSKPPVR, which protein stability index is on record?
Answer: 3.28

Question: With TKHKCRQLTKASLKPRGCSKPPSR as the variant, how does the protein stability index read?
Answer: 2.84

Question: With TKHKCRQLTKASLKPRGCSKPPYR as the variant, how does the protein stability index read?
Answer: 3.86

Question: Which protein stability index does the source give for TKHKCRQLTKASLKPRGCSKPPRR here?
Answer: 3.96

Variants of: B2
Test: as above
Conditions: c terminus: a fixed tail appended

Question: For ILGKVDLWILHLLLECYIQYHHSK, which protein stability index is on record?
Answer: 3.23

Question: For ILGKVWLWILHLLLECYIQYHHSK, which protein stability index is on record?
Answer: 2.72

Question: With ILGKVELWILHLLLECYIQYHHSK as the variant, how does the protein stability index read?
Answer: 2.55

Question: Which protein stability index does the source give for ILGKVYLWILHLLLECYIQYHHSK here?
Answer: 2.98

Question: For ILGKVLLWILHLLLECYIQYHHSK, which protein stability index is on record?
Answer: 3.74

Question: For ILGKVALWILHLLLECYIQYHHSK, which protein stability index is on record?
Answer: 1.4

Question: For ILGKVCLWILHLLLECYIQYHHSK, which protein stability index is on record?
Answer: 2.94

Question: For ILGKVHLWILHLLLECYIQYHHSK, which protein stability index is on record?
Answer: 3.07

Question: For ILGKVKLWILHLLLECYIQYHHSK, which protein stability index is on record?
Answer: 3.39

Question: With ILGKVNLWILHLLLECYIQYHHSK as the variant, how does the protein stability index read?
Answer: 2.86

Question: With ILGKVPLWILHLLLECYIQYHHSK as the variant, how does the protein stability index read?
Answer: 2.73

Question: For ILGKVQLWILHLLLECYIQYHHSK, which protein stability index is on record?
Answer: 3.64

Question: With ILGKVSLWILHLLLECYIQYHHSK as the variant, how does the protein stability index read?
Answer: 3.76

Question: For ILGKVMLWILHLLLECYIQYHHSK, which protein stability index is on record?
Answer: 2.24

Question: With ILGKVRLWILHLLLECYIQYHHSK as the variant, how does the protein stability index read?
Answer: 2.74

Question: For ILGKVTLWILHLLLECYIQYHHSK, which protein stability index is on record?
Answer: 3.07

Question: Which protein stability index does the source give for ILGKVVLWILHLLLECYIQYHHSK here?
Answer: 3.41

Question: With DLGKVILWILHLLLECYIQYHHSK as the variant, how does the protein stability index read?
Answer: 2.93

Question: Which protein stability index does the source give for WLGKVILWILHLLLECYIQYHHSK here?
Answer: 2.22

Question: With PLGKVILWILHLLLECYIQYHHSK as the variant, how does the protein stability index read?
Answer: 2.56

Question: For TLGKVILWILHLLLECYIQYHHSK, which protein stability index is on record?
Answer: 3.49

Question: For RLGKVILWILHLLLECYIQYHHSK, which protein stability index is on record?
Answer: 2.92

Question: Which protein stability index does the source give for CLGKVILWILHLLLECYIQYHHSK here?
Answer: 2.82

Question: Which protein stability index does the source give for SLGKVILWILHLLLECYIQYHHSK here?
Answer: 3.41

Question: For FLGKVILWILHLLLECYIQYHHSK, which protein stability index is on record?
Answer: 2.81

Question: For VLGKVILWILHLLLECYIQYHHSK, which protein stability index is on record?
Answer: 3.68

Question: With NLGKVILWILHLLLECYIQYHHSK as the variant, how does the protein stability index read?
Answer: 3.45

Question: With MLGKVILWILHLLLECYIQYHHSK as the variant, how does the protein stability index read?
Answer: 3.36

Question: With HLGKVILWILHLLLECYIQYHHSK as the variant, how does the protein stability index read?
Answer: 2.88

Question: With LLGKVILWILHLLLECYIQYHHSK as the variant, how does the protein stability index read?
Answer: 3.4

Question: For QLGKVILWILHLLLECYIQYHHSK, which protein stability index is on record?
Answer: 2.5

Question: Which protein stability index does the source give for GLGKVILWILHLLLECYIQYHHSK here?
Answer: 3.43

Question: For ELGKVILWILHLLLECYIQYHHSK, which protein stability index is on record?
Answer: 3.42

Question: With KLGKVILWILHLLLECYIQYHHSK as the variant, how does the protein stability index read?
Answer: 1.79

Question: Which protein stability index does the source give for IHGKVILWILHLLLECYIQYHHSK here?
Answer: 1.91

Question: Which protein stability index does the source give for IVGKVILWILHLLLECYIQYHHSK here?
Answer: 3.54

Question: For IQGKVILWILHLLLECYIQYHHSK, which protein stability index is on record?
Answer: 2.41

Question: For IEGKVILWILHLLLECYIQYHHSK, which protein stability index is on record?
Answer: 2.32

Question: For IFGKVILWILHLLLECYIQYHHSK, which protein stability index is on record?
Answer: 2.86

Question: With IRGKVILWILHLLLECYIQYHHSK as the variant, how does the protein stability index read?
Answer: 2.75

Question: Which protein stability index does the source give for ISGKVILWILHLLLECYIQYHHSK here?
Answer: 2.82

Question: With IPGKVILWILHLLLECYIQYHHSK as the variant, how does the protein stability index read?
Answer: 2.74

Question: Which protein stability index does the source give for IAGKVILWILHLLLECYIQYHHSK here?
Answer: 2.41

Question: For IYGKVILWILHLLLECYIQYHHSK, which protein stability index is on record?
Answer: 2.77

Question: With IDGKVILWILHLLLECYIQYHHSK as the variant, how does the protein stability index read?
Answer: 2.04

Question: Which protein stability index does the source give for INGKVILWILHLLLECYIQYHHSK here?
Answer: 2.93

Question: With IGGKVILWILHLLLECYIQYHHSK as the variant, how does the protein stability index read?
Answer: 3.77

Question: For ITGKVILWILHLLLECYIQYHHSK, which protein stability index is on record?
Answer: 3.29

Question: Which protein stability index does the source give for IWGKVILWILHLLLECYIQYHHSK here?
Answer: 2.18

Question: With IKGKVILWILHLLLECYIQYHHSK as the variant, how does the protein stability index read?
Answer: 3.23

Question: With ILMKVILWILHLLLECYIQYHHSK as the variant, how does the protein stability index read?
Answer: 2.76

Question: Which protein stability index does the source give for ILPKVILWILHLLLECYIQYHHSK here?
Answer: 3.89

Question: For ILIKVILWILHLLLECYIQYHHSK, which protein stability index is on record?
Answer: 2.58

Question: For ILLKVILWILHLLLECYIQYHHSK, which protein stability index is on record?
Answer: 2.76

Question: For ILNKVILWILHLLLECYIQYHHSK, which protein stability index is on record?
Answer: 2.87

Question: For ILWKVILWILHLLLECYIQYHHSK, which protein stability index is on record?
Answer: 2.58

Question: Which protein stability index does the source give for ILEKVILWILHLLLECYIQYHHSK here?
Answer: 2.62

Question: With ILYKVILWILHLLLECYIQYHHSK as the variant, how does the protein stability index read?
Answer: 3.82

Question: With ILTKVILWILHLLLECYIQYHHSK as the variant, how does the protein stability index read?
Answer: 3.14

Question: With ILFKVILWILHLLLECYIQYHHSK as the variant, how does the protein stability index read?
Answer: 2.9

Question: Which protein stability index does the source give for ILCKVILWILHLLLECYIQYHHSK here?
Answer: 3.41

Question: With ILSKVILWILHLLLECYIQYHHSK as the variant, how does the protein stability index read?
Answer: 1.95

Question: Which protein stability index does the source give for ILQKVILWILHLLLECYIQYHHSK here?
Answer: 3.27

Question: For ILKKVILWILHLLLECYIQYHHSK, which protein stability index is on record?
Answer: 3.66

Question: Which protein stability index does the source give for ILDKVILWILHLLLECYIQYHHSK here?
Answer: 3.06

Question: With ILVKVILWILHLLLECYIQYHHSK as the variant, how does the protein stability index read?
Answer: 2.32

Question: Which protein stability index does the source give for ILHKVILWILHLLLECYIQYHHSK here?
Answer: 2.67
